Source: the DeepSol protein solubility set

Test: soluble on expression in E. coli; label from the status in PepcDB or PDB records

Soluble on expression in E. coli, not soluble:
MGSDKIHHHHHHMTFGEKLLNAASTRGRLCVGIDPHESLLTSWGLPVNVDGLAEFSRACVEAFADTVALVKPQVAFYERFGSAGFAILEETIQTLRERGCLVVSDAKRGDIGSTMAGYASAWLDPASPLSSDAVTVSPYLGFHSLDPVFELAEQHGRGVFVLAATSNPEARELQDQQNADGVSISQQIVDQAAALNAPYMAQGKAGNIGVVIGATLSKPPRLSTLGGAILMPGVGAQGGTASDVDEIAGDMAHLAFPNVSRSILATGPDIAEMKNSVAKNAADFPGFPRS
MVFMEENKKYRILGTLLYYVLRIISSTLKIEIVNKYGIDMQRPHIYGFWHSKLFITPIFFRNVEKKLAMSSPTKDGELISVPLEKMGYILVRGSSDKNQISSTISLLKYLKKGYSIGTPLDGPKGPKEKPKKGLLYLSQKTSVPLVPVGISYSKKWILKKTWDQFEIPKPFSKVKIFLGEPILIDDDEDLDKYTEIVKNGINSLNNQIEFLEHHHHHH
MGLYDKYARLAGERLQFSDNGLTPFGTCIDEVYSATEGRIGNKKVILAGTNNYLGLTFNHDAISEGQAALAAQGTGTTGSRMANGSYAPHLALEKEIAEFFNRPTAIVFQPVIPLI
DLAKEGKLHSIVDSLFYSRLYKKEKRVYGDTDYDRFDFFTNRFLQSFNKAAFDDFFSSRVEYPNQIKILFQMFFTKMEKLKTD
MAELKDQLSLLGRKTEYKQDYAPEVLEAFDNKHPENDYWVRFNCPEFTSLCPITGQPDFAEIRISYIPDIKMVESKSLKLYLFSFRNHGAFHEDCVNIIMKDLIKLMNPKYIEVTGIFTPRGGISIYPYANYGRPGTKFEQMAEHRLMNRE
MEKLDGVANTLYVPLYGRIYVSKKFPEYFYDEMALKIEEKFTSGISKGSFEYTNMAYGARYYNMDKMIIKFIEEHKISNIILLGIGLETAYDRITQKCGLGEVNYYGIDLPEVIEIRKKYFGERKQETLIAGDMFEMEWKEQIDTSIPTLLIVSGVFQYFFEDKIIEFIKNLKKEFPYGELVFDTARKKTGLRFANWYIRRTGNLEALMHFYIEDSVDFSKKTDTILVEELTFFKDARELLRKKLNFITKLFMKIADSKRQALIIHLKWLEHHHHHH
MLKSKKRLLNPDYLFVTQDESSFYLDSNRSKCWAIKGSKPIKFISGSKTKINIGGFYTENRDFYWYDLGIKKNTDSFLKSLIKLKKDIGRKIFLLLDRATWHKSKKAREFFQNNKYWLQILLFPPATPDRNPTEYCWKTTREELTSIKSFKNIKVLKEELDEFWEKHVFTHKMSHYLKWLEHHHHHH
MGSDKIHHHHHHMPEPDPLRIKTFTTPKDLGEWLKVNHGSERELWVKIYKKNTGIESVTWNDVVIEVLCWGWIDGIKKSIDDQAYLQRITPRKMRSNWSKRNTEHAERLISEERMMESGLVHIRAAKSDGRWENAYVVSEMEVPADFLAALENKSNAKAFFETLNKSSRYVIAYGLISAKKPETRLRRFEKFMNMLVHEEKPK
MGSDKIHHHHHHMMKIYKKNIDHYIMLSFEINEMNIPFTGQIVVKEDDEVTREVILGRAKKIHEWLVLVDHIFSPFRTNSELTLYNHRKIEMTGTNLLFQEVFALSIWAKEMTQGLFSANFVGKYNPTGAVKGWAIEKAERIQLEPLLSDPNFVAVNLNGGGDMQFSSSDKHNWQWEIGIVNPFDNKKVISCFRMKNGAIATSGTSQRGEHLFNSSTGRAIPEKNFNVISSSVIGSELTYSDIWATAIATTTINDHSWLKRLSGSGLRISYNKKSERWLNHEIIDQKELIYA
MQFHAVYQNNDTKANLDFALNISTINFATLQELQNSFDLQGSDLTAGLFYKYSVNKLTSGTNDLTTIAKTALGENIIQKQVSLTQSIIKPRLEAAKTQYKQDIIAPFAKERQAALAQHL
RVLEDLGWYVAHNIPPQIILELIDMCAREDSPVDKVAVVCDVRSREFRGSLTQVVSELRDKQLDPTVLFLEARDEVLIKRFDNVRRTHPLQGSQTLQVGIERERTVLSPVKEDASVVIDTSDLSVHDLRRAIESSFRTIATRTQHVTIESFGFKHGSPRDADFVVDVRFLPNPFWVPELRPFRGVDKPVSDYVLSQKGAEEFLNNFVDMLKDMLPGYRHEGKNFITIGVGCTGGHHRSVAVSEELAKRIADQTTLDVSVVHRDINRH
MTDLEVSVDDLVKLLSPTMSLIVRRKTMEVVTQLGTPLDGSAGKYFQAQDFALGKAICQLCEATSSDRTETLAALTNFTSGSIEAADFVLDKSKCVEIAYTAVVTNALYSSVASRLLVNVSRHFPDRVDHKLKARNANYIGQLLNEIKKSVETGDEDRAKFVGFTVVNLSVLPPIRQNIVQGGENESSPPSTTMKLLPIVCELLTTAETTEIRECAADVLRNLAFDDSLHGSLLDTSDEYLCSILAPLMDVNDNLDEEEIAKLPVRLQYYEKERDSSDIVRQKLIEALFQLCATKHGREVLRAKGVYPAMRELDKGTETAEDKHKKTLLSSQQEHTLHALIGILIRYESEMDVDPELSSIRELGTSEVTEITKTS
MTRPFNRVHLIVMDSVGIGEAPDAADFKDEGSHTLRHTLEGFDQTLPNLEKLGLGNIDKLPVVNAVEQPEAYYTKLSEASVGKDTMTGHWEIMGLNIMQPFKVYPNGFPEELIQQIEEMTGRKVVANKPASGTQIIDEWGEHQMKTGDLIVYTSADPVLQIAAHEDIIPLEELYDICEKVRELTKDPKYLIGRIIARPYVGEPGNFTRTSNRHDYALKPFGKTVLDHLKDGGYDVIAIGKINDIYDGEGVTEAVRTKSNMDGMDQLMKIVKKDFTGISFLNLVDFDALYGHRRDKPGYAQAIKDFDDRLPELFSNLKEDDLVIITADHGNDPTAPGTDHTREYIPVIMYSPKFKGGHALESDTTFSSIGATIADNFNVTLPEFGKSYLKELK
MGSDKIHHHHHHMKRVISLIDMDCFYAQVEQRDNPSLWGQPVIVVQHSRQGIEGGILAVSYEARPFGVKRGMTVAEAKLKCPQISICHVPIGEYVDKADIQKYRDASAEVFRVLNNYDSQIIIEKASVDEAFLDLSAYTNQKLQELRENEGLEEFLQAAITYLPTTHLATGEDVKENEHLREDVLLEYIENARNCTENLLLLIAAVTVEQIRQQIHEETQFFCSAGVGNNKMMAKLVCARHKPRQQTLIPWFYVREILRLTPIGDVRGFGGKMGNRIQEMLNITVRKRKYSKFQVIFRIFIEKLSEMSEICNFRRFYTIFKYFSLNLEIWKYSKKNQFFLAKKKEILRFSQLKIRKFEFPVTFYPRNPLMGELLEVDISQLIE
MAAAPPSADPLDKALIVDVDQWIEQLYECKPLSENQVKTLCEKAKEILEKEPNVQEVRCPVTVCGDVHGQFHDLMELFKMGGKSPDTNYLFMGDYVDRGYYSVETVSLLVCLKIRYKDRVTLLRGNHESRQITQVYGFYDECLRKYGNSNVWKYFTDLFDCFPLTALVDGQIFCLHGGLSPSIDTLDHIRALDRIQEVPHEGPMCDLLWSDPDDRGGWGISPRGAGYTFGQDISETFNHSNGLTLISRAHQLVMEGYNWSHDRNVVTVFSAPNYCYRCGNQAAMVELDDDLKYSFLQFDPAPRRGEPHVTRRTPDYFL

Soluble on expression in E. coli, soluble:
MSLQPHLICLDLDGTLLNDNKEISSYTKQVLNELQQRGHQIMIATGRPYRASQMYYHELNLTTPIVNFNGAYVHHPKDKNFKTCHEILDLGIAQNIIQGLQQYQVSNIIAEVKDYVFINNHDPRLFEGFSMGNPRIQTGNLLVHLKESPTSILIEAEESKIPEIKNMLTHFYADHIEHRRWGAPFPVIEIVKLGINKARGIEQVRQFLNIDRNNIIAFGDEDNDIEMIEYARHGVAMENGLQELKDVANNITFNNNEDGIGRYLNDFFNLNIRYYEGHHHHHH
MASSTISLQSISMTTLNNLSYSKQFHRSSLLGFSKSFQNFGISSNGPGSSSPTSFTPKKKLTPTRALSQNLGNTENPRPSKVQELSVYEINDLDRHSPKILKNAFSFRFGLGDLVPFTNKLYTGDLKKRVGITAGLCVVIEHVPEKNGDRFEATYSFYFGDYGHLSVQGPYLTYEDSFLAITGGAGIFEGAYGQVKLQQLVYPTKLFYTFYLKGLANDLPLELIGTPVPPSKDVEPAPEAKALKPSGVVSNFTN
MAPPTPHLAVRGSDGTLLLHGPPNCQESSAFQRDDRQGRYMTFSNDGTLFAWCNGSQVTVLKVPSGDLVKSFDLPKTTALEFSPLNKVLATWQQYTKTQDNPQGEANLQLWDLQTGACMKAFYQKKMTGWCPSWADDESISVRNVNNELHFFENNNFETIANKLHLQKVSEFALSPGSQPSKVAVYVPGSKGAPSFVRLYQYPNFGGPTCALANKSFFKADKVNMLWNKKATAVLVTASTEVDKTGASYYGEQTLHYVATNGESAVVQLPKNGPIYDVSWSPNSTEFCVVYGFMPAKATVFNNKCESVFDFGTGPRNAAFYSPQGHILVLAGFGNLRGQMEVWDVKKYKQVSKPQAEDTTHFSWCPDGEHIVTATCSPRLRASNGYKIWHYTGTVLYKHETPSGKELWEVLWQPFPAGVFPERAVKYQALPSELGSTEAKPAQAYRPPALRNKPQTASSKLHEEEPPQNMKPGAAGEKQPSKAALKNQKRREAKKAAKQENKPDEAPPPAADPAPVSHVTSSCGDPETDKKIKNLKKKLKAIDELKEQQAAGKVMQKNQLEKMQKEAQLLKELEDLELGL
MQNLSSTQREILLALVDLYNRYKRMIKSKEVADVIGKDEGTVRNIILSLKVLGLIESKPGPNGGYVPTLKAYESIKNPIITPVFDQISLYKDGLETDIKISNIELLDITNPSGNKVLLRVNGDLRKLKVGDSIKIGPIPYTRLVIEGVVIHIDDTRKELIADVTRMISIPKVQIKSLISKKLVALKPDMTLKEASQIFYKEGIRGAPVLDNEGKTLGILTTADIIKAFFEGKYDAKVSEYMKSNVISIRDEDDILTAIKKMLIYNVGRLLVYNQDQKVIGIVTRTDILKTIAGLEELITP
MTPPPADDTSGKSGRRTELLDIAATLFAERGLRATTVRDIADAAGILSGSLYHHFDSKESMVDEILRGFLDDLFGKYREIVASGLDSRATLEALVTTSYEAIDASHSAVAIYQDEVKHLVANERFTYLSELNTEFRELWMGVLEAGVKDGSFRSDIDVELAFRFLRDTAWVAVRWYRPGGSVTVDTVAKQYLSIVLDGLASPHN
MSTLGHQYDNSLVSNAFGFLRLPMNFQPYDSDADWVITGVPFDMATSGRAGGRHGPAAIRQVSTNLAWEHNRFPWNFDMRERLNVVDCGDLVYAFGDAREMSEKLQAHAEKLLAAGKRMLSFGGDHFVTLPLLRAHAKHFGKMALVHFDAHTDTYANGCEFDHGTMFYTAPKEGLIDPNHSVQIGIRTEFDKDNGFTVLDACQVNDRSVDDVIAQVKQIVGDMPVYLTFDIDCLDPAFAPGTGTPVIGGLTSDRAIKLVRGLKDLNIVGMDVVEVAPAYDQSEITALAAATLALEMLYIQAAKKGE
GPLGSSWLFLEVIAGPAIGLQHAVNSTSSSKLPVKLGRVSPSDLALKDSEVSGKHAQITWNSTKFKWELVDMGSLNGTLVNSHSISHPDLGSRKWGNPVELASDDIITLGTTTKVYVRISSQNEFQIPFKIGVASDPMA
